Laboratory results taken from PMC8809517, “Cofactor-independent RNA editing by a synthetic S-type PPR protein”.
Positions count from the first letter of the chain named.

Experiments:
Assay in all cases: high-throughput RNA pulldown from lysate on Ni-NTA beads; HRP: 50 mM Tris pH 8, 150 mM NaCl, 1 mM beta-mercaptoethanol, 50 ug/ml BSA, 3 ug/ml yeast RNA, 0.5% heparin; ITC and FP: Tris pH 8, 200 mM KCl, 5% glycerol; MST: 50 mM Tris pH 8, 200 mM NaCl, 1 mM DTT, BSA, heparin, 0.05% Tween 20
Settings in all cases: tags: N-terminal His-eGFP
[1] = target: T1, GFP-9S library array, motif 4 ND N98H;D124Q (synthetic construct, N98H;D124Q)
T1 chain: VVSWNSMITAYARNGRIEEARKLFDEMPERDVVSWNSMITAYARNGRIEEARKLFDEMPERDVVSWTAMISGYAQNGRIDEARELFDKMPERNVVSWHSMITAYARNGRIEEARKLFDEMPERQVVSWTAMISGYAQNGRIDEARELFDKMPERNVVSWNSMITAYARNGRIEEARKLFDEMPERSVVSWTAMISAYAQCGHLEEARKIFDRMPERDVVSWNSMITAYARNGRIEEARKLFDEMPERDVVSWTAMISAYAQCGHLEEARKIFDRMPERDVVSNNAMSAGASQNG

[2] = target: T2, GFP-9S library array, motif 4 ND N98K;D124R (synthetic construct, N98K;D124R)
T2 chain: T1 chain with H98K, Q124R

[3] = target: T3, GFP-9S library array, motif 4 ND N98D (synthetic construct, N98D)
T3 chain: T1 chain with H98D, Q124D

[4] = target: T4, GFP-9S library array, motif 4 ND N98G;D124Y (synthetic construct, N98G;D124Y)
T4 chain: T1 chain with H98G, Q124Y

[5] = target: T5, GFP-9S library array, motif 4 ND N98H;D124N (synthetic construct, N98H;D124N)
T5 chain: T1 chain with Q124N

B1: Cy5-rpoA (ssRNA)
RNA: AUUACACGUGA
- Kd ([1]; label: 5' Cy5): 68.7 nM
- Kd ([2]; label: 5' Cy5): 42.9 nM
- Kd ([3]; label: 5' Cy5): 395 nM
- Kd ([4]; label: 5' Cy5): 272 nM
- Kd ([5]; label: 5' Cy5): 36.1 nM

B2: IR-rpoA-A (ssRNA)
RNA: AUUAAACGUGA
- Kd ([1]; label: 5' IRDye 800CW): 82.6 nM
- Kd ([2]; label: 5' IRDye 800CW): 139 nM
- Kd ([3]; label: 5' IRDye 800CW): 531 nM
- Kd ([4]; label: 5' IRDye 800CW): 548 nM
- Kd ([5]; label: 5' IRDye 800CW): 189 nM

B3: Cy5-rpoA-G (ssRNA)
RNA: AUUAGACGUGA
- Kd ([1]; label: 5' Cy5): 60.8 nM
- Kd ([2]; label: 5' Cy5): 55.5 nM
- Kd ([3]; label: 5' Cy5): 55.1 nM
- Kd ([4]; label: 5' Cy5): 280 nM
- Kd ([5]; label: 5' Cy5): 149 nM

B4: IR-rpoA-U (ssRNA)
RNA: AUUAUACGUGA
- Kd ([1]; label: 5' IRDye 800CW): 31.4 nM
- Kd ([2]; label: 5' IRDye 800CW): 66.9 nM
- Kd ([3]; label: 5' IRDye 800CW): 315 nM
- Kd ([4]; label: 5' IRDye 800CW): 574 nM
- Kd ([5]; label: 5' IRDye 800CW): 30.8 nM
